{"source": "patent US8349318B2", "about": "“Use of specifically engineered enzymes to enhance the efficacy of prodrugs” (The Board of Trustees of the University of Illinois, priority 2008, dated 2013)", "origin": "cited, not measured here", "molecules": {"B1": {"name": "dNK: Drosophila melanogaster nucleoside kinase, SEQ ID NO:3 (protein)", "chain": "MAEAASCARKGTKYAEGTQPFTVLIEGNIGSGKTTYLNHFEKYKNDICLLTEPVEKWRNVNGVNLLELMYKDPKKWAMPFQSYVTLTMLQSHTAPTNKKLKIMERSIFSARYCFVENMRRNGSLEQGMYNTLEEWYKFIEESIHVQADLIIYLRTSPEVAYERIRQRARSEESCVPLKYLQELHELHEDWLIHQRRPQSCKVLVLDADLNLENIGTEYQRSESSIFDAISSNQQPSPVLVSPSKRQRVAR", "modifications": "Drosophila melanogaster"}}}
{"molecule": "B1", "values": [{"measurement": "kcat for dC phosphorylation", "setting": "Knecht et al., 2002", "value": 16.5, "unit": "s⁻¹"}, {"measurement": "efficiency for dC phosphorylation, higher than dCK", "setting": "compared with dCK", "value": "2,500 fold"}]}
